Source: paper PMC8099429, “Membrane binding controls ordered self-assembly of animal septins” (eLife, 2021)
Each block holds one molecule with its values, some of them ahead of it.

Assays:
[1] = molecular target: Drosophila melanogaster septin hexamers composed of His6-DSep1, DSep2, Pnut-StrepII (Drosophila melanogaster) (UniProt P42207); test: atomic force microscopy on supported lipid bilayers; 12, 24 or 60 nM hexamers for 15 min at 19°C on silica-supported bilayers of 80% PC and 20% PS in polymerization buffer; mostly fixed with 1% glutaraldehyde, also unfixed
[2] = molecular target: Drosophila melanogaster septin hexamers composed of His6-DSep1, mEGFP-DSep2, and Pnut-StrepII (Drosophila melanogaster) (UniProt P42207); test: TIRF microscopy of bundles formed in solution; mEGFP-tagged hexamers diluted from 300 mM KCl into polymerization buffer with 50 mM KCl (20 mM imidazole pH 7.4), 100, 200, 500 nM; crowded onto a neutral PC bilayer with 0.1 wt-% methylcellulose; 20°C
[3] = molecular target: the molecule itself; test: scanning transmission electron microscopy (STEM) with mass-per-length mapping; septins preassembled for 1 hr at 20°C in solution at 50-500 nM, no membrane; TMV rods as mass standard

- threshold concentration for polymerization on negatively charged membranes [1]: < 12 nM
Molecule: Drosophila melanogaster septin hexamers composed of His6-DSep1, DSep2, Pnut-StrepII (from UniProt P42207 1-361; P54359 1-419; P40797 1-539) (complex)

- threshold concentration for polymerization in solution [2]: 200 nM
Molecule: Drosophila melanogaster septin hexamers composed of His6-DSep1, mEGFP-DSep2, and Pnut-StrepII (from UniProt P42207 1-361; P54359 1-419; P40797 1-539) (complex)

B1: Budding yeast septin octamers composed of Cdc3, Cdc10, Cdc11, and His6-Cdc12 (complex, budding yeast (S. cerevisiae))
chain 1: MSLKEEQVSIKQDPEQEERQHDQFNDVQIKQESQDHDGVDSQYTNGTQNDDSERFEAAESDVKVEPGLGMGITSSQSEKGQVLPDQPEIKFIRRQINGYVGFANLPKQWHRRSIKNGFSFNLLCVGPDGIGKTTLMKTLFNNDDIEANLVKDYEEELANDQEEEEGQGEGHENQSQEQRHKVKIKSYESVIEENGVKLNLNVIDTEGFGDFLNNDQKSWDPIIKEIDSRFDQYLDAENKINRHSINDKRIHACLYFIEPTGHYLKPLDLKFMQSVYEKCNLIPVIAKSDILTDEEILSFKKTIMNQLIQSNIELFKPPIYSNDDAENSHLSERLFSSLPYAVIGSNDIVENYSGNQVRGRSYPWGVIEVDNDNHSDFNLLKNLLIKQFMEELKERTSKILYENYRSSKLAKLGIKQDNSVFKEFDPISKQQEEKTLHEAKLAKLEIEMKTVFQQKVSEKEKKLQKSETELFARHKEMKEKLTKQLKALEDKKKQLELSINSASPNVNHSPVPTKKKGFLR
chain 2: MDPLSSVQPASYVGFDTITNQIEHRLLKKGFQFNIMVVGQSGLGKSTLINTLFASHLIDSATGDDISALPVTKTTEMKISTHTLVEDRVRLNINVIDTPGFGDFIDNSKAWEPIVKYIKEQHSQYLRKELTAQRERFITDTRVHAILYFLQPNGKELSRLDVEALKRLTEIANVIPVIGKSDTLTLDERTEFRELIQNEFEKYNFKIYPYDSEELTDEELELNRSVRSIIPFAVVGSENEIEINGETFRGRKTRWSAINVEDINQCDFVYLREFLIRTHLQDLIETTSYIHYEGFRARQLIALKENANSRSSAHMSSNAIQR
chain 3: MSGIIDASSALRKRKHLKRGITFTVMIVGQSGSGRSTFINTLCGQQVVDTSTTILLPTDTSTEIDLQLREETVELEDDEGVKIQLNIIDTPGFGDSLDNSPSFEIISDYIRHQYDEILLEESRVRRNPRFKDGRVHCCLYLINPTGHGLKEIDVEFIRQLGSLVNIIPVISKSDSLTRDELKLNKKLIMEDIDRWNLPIYNFPFDEDEISDEDYETNMYLRTLLPFAIIGSNEVYEMGGDVGTIRGRKYPWGILDVEDSSISDFVILRNALLISHLHDLKNYTHEILYERYRTEALSGESVAAESIRPNLTKLNGSSSSSTTTRRNTNPFKQSNNINNDVLNPASDMHGQSTGENNETYMTREEQIRLEEERLKAFEERVQQELLLKRQELLQREKELREIEARLEKEAKIKQEE
chain 4: MSAATATAAPVPPPVGISNLPNQRYKIVNEEGGTFTVMLCGESGLGKTTFINTLFQTVLKRADGQQHRQEPIRKTVEIDITRALLEEKHFELRVNVIDTPGFGDNVNNNKAWQPLVDFIDDQHDSYMRQEQQPYRTKKFDLRVHAVLYFIRPTGHGLKPIDIETMKRLSTRANLIPVIAKADTLTAQELQQFKSRIRQVIEAQEIRIFTPPLDADSKEDAKSGSNPDSAAVEHARQLIEAMPFAIVGSEKKFDNGQGTQVVARKYPWGLVEIENDSHCDFRKLRALLLRTYLLDLISTTQEMHYETYRRLRLEGHENTGEGNEDFTLPAIAPARKLSHNPRYKEEENALKKYFTDQVKAEEQRFRQWEQNIVNERIRLNGDLEEIQGKVKKLEEQVKSLQVKKSHLK
notes: Cdc3, budding yeast septin; Cdc10, budding yeast septin; Cdc11, budding yeast septin; Cdc12, budding yeast septin; Two copies of each chain follow from the word octamer with four named subunits; also called yeast septins; budding yeast septins; source: purified as described (Bertin et al., 2008); copies: 2 + 2 + 2 + 2
- binding result [3]: binds
